Experimental data as given in the supplement of paper PMC10724198.
± gives the standard deviation of the averaged measurements.
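Note: PSI is a weighted mean of sequencing reads over stability bins, variants kept only with over 10 reads, mCherry proximal and sfGFP distal, peptide attached via GGGS linker.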

These sequences were tested on Saccharomyces cerevisiae (assay: protein stability index of tFT-peptide fusion (C-terminal peptide) (PSI (0-1 scale)); higher = more stable (slower turnover)). Details: genetic background: wild type; temperature: 30 C.
In the case of VPEVRRTDGRVR, the protein stability index is reported as 0.74 ± 0.014. RIATRCEGPGHK showed a protein stability index of 0.663 ± 0.015. With LIPALPPPLPPP the protein stability index was 0.673 ± 0.0056. ALGVHGKFEWIK was tested, and the protein stability index was 0.668 ± 0.066. Work on ASYGHCTTCRRT yielded a protein stability index of 0.717 ± 0.021. FVASEFEVRLWR was tested, and the protein stability index was 0.769 ± 0.01. Work on VRRWAVSSAFVG yielded a protein stability index of 0.628 ± 0.054. With KNKGKHKGGKYR the protein stability index was 0.721 ± 0.059. PTMKLPLLSCAR showed a protein stability index of 0.602 ± 0.091. With SEPCSASLSVSL the protein stability index was 0.64 ± 0.045. LGLGPKNLSYSE gave a protein stability index of 0.676 ± 0.043. RFKLEKIKHKKK showed a protein stability index of 0.755 ± 0.054. PAPPPPARPALP was tested, and the protein stability index was 0.706 ± 0.027. AHKSFRMVDGNR was tested, and the protein stability index was 0.678 ± 0.066. For GLLARESLSFRH, the protein stability index was 0.675 ± 0.026. In the case of VRGSLGQGNDTA, the protein stability index is reported as 0.706 ± 0.03. SLSAPPPRSTSP was tested, and the protein stability index was 0.597 ± 0.021. RGEGGRGRTVEG gave a protein stability index of 0.631 ± 0.077. For CGGAVMREGQVG, the protein stability index was 0.681 ± 0.013. PRPRPRSGWILL gave a protein stability index of 0.696 ± 0.036. For FASPPPLPLPPH, the protein stability index was 0.694 ± 0.02. For DVLCALYFGRSK, the protein stability index was 0.707 ± 0.045. WCPGAGGAVVVV showed a protein stability index of 0.658 ± 0.073. Sequence SLSPPSPTPSHS has a protein stability index of 0.7347 ± 0.0043. FMLCCFPCWCVL showed a protein stability index of 0.6127 ± 0.0041. KAASSLSRPAHL gave a protein stability index of 0.734 ± 0.074. With FILLLPSPPPAP the protein stability index was 0.618 ± 0.034. Work on LGGGGGGGGRLR yielded a protein stability index of 0.618 ± 0.0091. PPFVPFLLIFPP showed a protein stability index of 0.611 ± 0.042. For ERIGAREQPSAT, the protein stability index was 0.7075 ± 0.0056. RHVSHASRLTPG gave a protein stability index of 0.602 ± 0.11. For KKKKIKIKKKKI, the protein stability index was 0.763 ± 0.043. For VGDGQVWGGQGG, the protein stability index was 0.669 ± 0.063. With VGGAAVVAGGGV the protein stability index was 0.695 ± 0.031. VGVPAGQRRLAS showed a protein stability index of 0.718 ± 0.089. Sequence LSPTQSTLPTPP has a protein stability index of 0.673 ± 0.01. For LLPPPPPPTLYP, the protein stability index was 0.699 ± 0.016. With LPVCVRLSLCDV the protein stability index was 0.6144 ± 0.004. LLVLFRWSGIPG gave a protein stability index of 0.552 ± 0.034. TRTTTQKNNATT gave a protein stability index of 0.717 ± 0.037. In the case of YSGLNRVPDFCH, the protein stability index is reported as 0.676 ± 0.039. IYAQFCSLYDHP was tested, and the protein stability index was 0.702 ± 0.013. Sequence ISRLLMAMESRN has a protein stability index of 0.653 ± 0.024. For ERNKQNVTQKVK, the protein stability index was 0.723 ± 0.028. AIEKKVNQTPFK was tested, and the protein stability index was 0.659 ± 0.034. With RDGRAGGDIGAT the protein stability index was 0.618 ± 0.11. Sequence RLNRSRAVTFRI has a protein stability index of 0.663 ± 0.019. With ILRLSLPYEGYI the protein stability index was 0.645 ± 0.032. KECGICGAVVGL was tested, and the protein stability index was 0.63 ± 0.092. PLPFRSSPLLVL showed a protein stability index of 0.614 ± 0.05. With SSPSPCSRPLLL the protein stability index was 0.7112 ± 0.0011. In the case of NAVSFVKGRLVY, the protein stability index is reported as 0.657 ± 0.028. Work on TKSQGGLTWASC yielded a protein stability index of 0.626 ± 0.011. For SATALTANHPKM, the protein stability index was 0.677 ± 0.0096. LSAEAGAGLRAM showed a protein stability index of 0.684 ± 0.034. YCGGRCGGWEIG was tested, and the protein stability index was 0.698 ± 0.012. Sequence WVSWGCCSFLLT has a protein stability index of 0.616 ± 0.0092. In the case of CTAWGGWWTGRR, the protein stability index is reported as 0.743 ± 0.16. In the case of ATKAKKGTMSHE, the protein stability index is reported as 0.652 ± 0.051. GWSTKSTYHKPT gave a protein stability index of 0.732 ± 0.025. Sequence DRTQKIQNNKWM has a protein stability index of 0.622 ± 0.014. VLIRRLPFTSYL showed a protein stability index of 0.6365 ± 0.0034. In the case of PPSPSPPSPPPP, the protein stability index is reported as 0.656 ± 0.007. Work on APPPSPPPPPFP yielded a protein stability index of 0.67 ± 0.064. For MPNQTEARRKWV, the protein stability index was 0.633 ± 0.044. SHRSALLPFLPP gave a protein stability index of 0.646 ± 0.046. ISCVSFCCLFDL was tested, and the protein stability index was 0.601 ± 0.0022. VSPGLFRSPPHY showed a protein stability index of 0.664 ± 0.011. For KRKRAVQYLMQP, the protein stability index was 0.615 ± 0.042. For MRRSSKPRLSLT, the protein stability index was 0.725 ± 0.049. With PGCSCPSTRRTT the protein stability index was 0.655 ± 0.077. In the case of RGGGQVLGVRVG, the protein stability index is reported as 0.667 ± 0.089. VRKGSERKKAGN gave a protein stability index of 0.6686 ± 0.0043. Work on FLGECSLLSGFL yielded a protein stability index of 0.694 ± 0.033. In the case of PESAWLSPRCVF, the protein stability index is reported as 0.6696 ± 0.0039. LWCPLLTSFPSY was tested, and the protein stability index was 0.726 ± 0.078. Work on QEVTEVFSSTSY yielded a protein stability index of 0.658 ± 0.01. Sequence PPAPTAPPLSSH has a protein stability index of 0.681 ± 0.03. FTPDFTPKGSLS showed a protein stability index of 0.791 ± 0.088. With LILFQYFYLPMT the protein stability index was 0.517 ± 0.044. In the case of LTNLGSDRCRLQ, the protein stability index is reported as 0.623 ± 0.0074. Sequence PTPHHPPPHPGP has a protein stability index of 0.726 ± 0.042. With KEHKSQRSRVWR the protein stability index was 0.719 ± 0.011. SLARGFVVPMWP gave a protein stability index of 0.707 ± 0.045. Work on YSASPLSCICPP yielded a protein stability index of 0.652 ± 0.053. Work on ISAPLPTLLSVL yielded a protein stability index of 0.559 ± 0.041. For VGSVWGDCLGYL, the protein stability index was 0.701 ± 0.049. Work on QVKESDGEATKS yielded a protein stability index of 0.592 ± 0.024. With PPLSPRLLWSPV the protein stability index was 0.711 ± 0.0044. Sequence FRSFGYSGSMLA has a protein stability index of 0.6902 ± 0.0013. Sequence SSPPPLPPSPPP has a protein stability index of 0.673 ± 0.019. Sequence ALFTVGNRPSSL has a protein stability index of 0.701 ± 0.021. Sequence AEYSTAYRLGIC has a protein stability index of 0.644 ± 0.1. PPYPLHPARPPY was tested, and the protein stability index was 0.702 ± 0.036. With STLSSPSRRLLP the protein stability index was 0.677 ± 0.03. Work on GFSLGAPRPFVQ yielded a protein stability index of 0.718 ± 0.039. Work on RADGHGARFRVR yielded a protein stability index of 0.799 ± 0.009. For APSELSSRPFLL, the protein stability index was 0.707 ± 0.026. For SGPSWSGGGWGR, the protein stability index was 0.648 ± 0.021. ALRSGGAARVRL was tested, and the protein stability index was 0.7776 ± 0.0071. Work on RVLLYWRGSGVL yielded a protein stability index of 0.577 ± 0.071.
